According to US20210347852A1 (Regeneron, published 2021):
Where a chain is given by its changes, count along the chain named.

B1: REGN10104, VEGF Trap hIgG1 stealth Fc (Fc fusion)
chain: SDTGRPFVEMYSEIPEIIHMTEGRELVIPCRVTSPNITVTLKKFPLDTLIPDGKRIIWDSRKGFIISNATYKEIGLLTCEATVNGHLYKTNYLTHRQTNTIIDVVLSPSHGIELSVGEKLVLNCTARTELNVGIDFNWEYPSSKHQHKKLVNRDLKTQSGSEMKKFLSTLTIDGVTRSDQGLYTCAASSGLMTKKNSTFVRVHEKDKTHTCPPCPAPPVAGPSVFLFPPKPKDTLMISRTPEVTCVVVDVSQEDPEVQFNWYVDGVEVHNAKTKPREEQFNSTYRVVSVLTVLHQDWLNGKEYKCKVSNKGLPSSIEKTISKAKGQPREPQVYTLPPSRDELTKNQVSLTCLVKGFYPSDIAVEWESNGQPENNYKTTPPVLDSDGSFFLYSKLTVDKSRWQQGNVFSCSVMHEALHNHYTQKSLSLSPGK
B2: REGN10105, VEGF mini-trap hIgG2 Fc w/2Cys (other)
chain: SDTGRPFVEMYSEIPEIIHMTEGRELVIPCRVTSPNITVTLKKFPLDTLIPDGKRIIWDSRKGFIISNATYKEIGLLTCEATVNGHLYKTNYLTHRQTNTIIDVVLSPSHGIELSVGEKLVLNCTARTELNVGIDFNWEYPSSKHQHKKLVNRDLKTQSGSEMKKFLSTLTIDGVTRSDQGLYTCAASSGLMTKKNSTFVRVHEKVECPPCPAPPVA
notes: IdeS cleaved from the IgG2 trap; they are kept as one molecule here; also called REGN10105-L3
B3: REGN10103, VEGF mini-trap hIgG2 Fc w/4Cys (other)
chain: SDTGRPFVEMYSEIPEIIHMTEGRELVIPCRVTSPNITVTLKKFPLDTLIPDGKRIIWDSRKGFIISNATYKEIGLLTCEATVNGHLYKTNYLTHRQTNTIIDVVLSPSHGIELSVGEKLVLNCTARTELNVGIDFNWEYPSSKHQHKKLVNRDLKTQSGSEMKKFLSTLTIDGVTRSDQGLYTCAASSGLMTKKNSTFVRVHEKERKCCVECPPCPAPPVA
B4: mREGN10187, VEGF mini-trap hIgG4 stealth Fc (other)
chain: B3 chain with R207S, C209Y, C210G, V211P, E212P
notes: IdeS cleaved from REGN10187; also called Mini-REGN10187
B5: REGN10187, VEGF Trap hIgG4 stealth Fc (Fc fusion)
chain: SDTGRPFVEMYSEIPEIIHMTEGRELVIPCRVTSPNITVTLKKFPLDTLIPDGKRIIWDSRKGFIISNATYKEIGLLTCEATVNGHLYKTNYLTHRQTNTIIDVVLSPSHGIELSVGEKLVLNCTARTELNVGIDFNWEYPSSKHQHKKLVNRDLKTQSGSEMKKFLSTLTIDGVTRSDQGLYTCAASSGLMTKKNSTFVRVHEKESKYGPPCPPCPAPPVAGPSVFLFPPKPKDTLMISRTPEVTCVVVDVSQEDPEVQFNWYVDGVEVHNAKTKPREEQFNSTYRVVSVLTVLHQDWLNGKEYKCKVSNKGLPSSIEKTISKAKGQPREPQVYTLPPSQEEMTKNQVSLTCLVKGFYPSDIAVEWESNGQPENNYKTTPPVLDSDGSFFLYSRLTVDKSRWQEGNVFSCSVMHEALHNHYTQKSLSLSLGK
B6: REGN10117, VEGF Trap hIgG2 Fc w/4 Cys (Fc fusion)
chain: SDTGRPFVEMYSEIPEIIHMTEGRELVIPCRVTSPNITVTLKKFPLDTLIPDGKRIIWDSRKGFIISNATYKEIGLLTCEATVNGHLYKTNYLTHRQTNTIIDVVLSPSHGIELSVGEKLVLNCTARTELNVGIDFNWEYPSSKHQHKKLVNRDLKTQSGSEMKKFLSTLTIDGVTRSDQGLYTCAASSGLMTKKNSTFVRVHEKERKCCVECPPCPAPPVAGPSVFLFPPKPKDTLMISRTPEVTCVVVDVSHEDPEVQFNWYVDGVEVHNAKTKPREEQFNSTFRVVSVLTVVHQDWLNGKEYKCKVSNKGLPAPIEKTISKTKGQPREPQVYTLPPSREEMTKNQVSLTCLVKGFYPSDIAVEWESNGQPENNYKTTPPMLDSDGSFFLYSKLTVDKSRWQQGNVFSCSVMHEALHNHYTQKSLSLSPGK
B7: mREGN10104, VEGF mini-trap hIgG1 stealth Fc (other)
chain: SDTGRPFVEMYSEIPEIIHMTEGRELVIPCRVTSPNITVTLKKFPLDTLIPDGKRIIWDSRKGFIISNATYKEIGLLTCEATVNGHLYKTNYLTHRQTNTIIDVVLSPSHGIELSVGEKLVLNCTARTELNVGIDFNWEYPSSKHQHKKLVNRDLKTQSGSEMKKFLSTLTIDGVTRSDQGLYTCAASSGLMTKKNSTFVRVHEKDKTHTCPPCPAPPVA
notes: IdeS cleaved from REGN10104; also called Mini-REGN10104
B8: REGN11095, VEGF mini-trap hIgG1 Mut GGGL Fc (other)
chain: SDTGRPFVEMYSEIPEIIHMTEGRELVIPCRVTSPNITVTLKKFPLDTLIPDGKRIIWDSRKGFIISNATYKEIGLLTCEATVNGHLYKTNYLTHRQTNTIIDVVLSPSHGIELSVGEKLVLNCTARTELNVGIDFNWEYPSSKHQHKKLVNRDLKTQSGSEMKKFLSTLTIDGVTRSDQGLYTCAASSGLMTKKNSTFVRVHEKDKTHTCPPCPGGGLLG
notes: also called Mini-REGN10514; mREGN10514
B9: REGN11095 (Alexa 488) (other)
chain: B8 chain
modifications: tagged with Alexa Fluor 488 (AF488) through amine conjugation
notes: also called REGN11095 AF488
B10: REGN10105 (Alexa 488) (other)
chain: B2 chain
modifications: tagged with Alexa Fluor 488 (AF488) through amine conjugation
notes: also called REGN10105 AF488

Target: T1, Human VEGF121 (R&D SYSTEMS Cat #4644-VS) (human, UniProt P15692-9 27-147)
T1 sequence (looked up): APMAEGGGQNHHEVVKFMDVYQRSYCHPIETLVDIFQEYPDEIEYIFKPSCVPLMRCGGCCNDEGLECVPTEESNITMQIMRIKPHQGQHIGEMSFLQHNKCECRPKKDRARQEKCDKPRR
Experiment: cell-based or functional assay

Binder	IC50, Inhibition of 20 pM VEGF121, VEGFR1 assay (luciferase)
B1	1.91e-11 M
B2	1.68e-11 M
B3	2.11e-11 M
B4	1.32e-11 M
B5	1.25e-11 M
B6	2.02e-11 M
B7	1.34e-11 M

Target: T1, Human VEGF121 (R&D SYSTEMS Cat #4644-VS)
Experiment: cell-based or functional assay
Remark: another data set of the same source

Binder	IC50 (read off the curve); NFkB-luciferase reporter (RLU), 293/D9/VEGFR1 cells, VEGF121 constant 40 pM [A]
B6	~2e-11 M

Target: T2, Human VEGF165 (REGN110) (human, UniProt P15692-4 27-191)
T2 construct: also called hVEGF165; REGN110-L9
Experiment: SPR, 25C, trap captured by REGN18, hVEGF165 injected
Experimental: (§1) Equilibrium dissociation constants (KD values) for human VEGF₁₆₅ binding to various purified VEGF mini-trap constructs were determined using a real-time surface plasmon resonance biosensor using a Biacore 3000 instrument. All binding studies were performed in 10 mM HEPES, 150 mM NaCl, 3 mM EDTA, and 0.05% v/v Surfactant Tween-20; pH 7.4 (HBS-ET) running buffer at 25° C. The Biacore sensor surface was first derivatized by amine coupling with a monoclonal mouse anti-VEGFR1 antibody (REGN18) to capture VEGF mini-trap constructs. Binding studies were performed on the following human VEGF reagents: human VEGF₁₆₅. […] Dissociation of bound VEGF₁₆₅ reagent from VEGF mini-trap constructs was monitored for 60 minutes in HBS-ET running buffer. Kinetic association (ka) and dissociation (kd) rate constants were determined by fitting the real-time sensorgrams to a 1:1 binding model using Scrubber 2.0c curve fitting software. Binding dissociation equilibrium constants (KD) and dissociative half-lives (t1/2) were calculated from the kinetic rate constants as: […]

Binder	2 nM VEGF165 Bound (RU)	Kd	koff	kon	t½
B8	19.4 RU	≤ 0.86 pM	≤ 1e-05 s⁻¹	1.16e+07 M⁻¹ s⁻¹	≥ 19.2 h
B9	14.9 RU	≤ 0.865 pM	≤ 1e-05 s⁻¹	1.16e+07 M⁻¹ s⁻¹	≥ 19.2 h
B2	20.4 RU	1.08 pM	≤ 1e-05 s⁻¹	9.3e+06 M⁻¹ s⁻¹	≥ 19.2 h
B10	18 RU	≤ 0.74 pM	≤ 1e-05 s⁻¹	1.36e+07 M⁻¹ s⁻¹	≥ 19.2 h

Target: T1, Human VEGF121 (R&D SYSTEMS Cat #4644-VS)
Experiment: cell-based or functional assay
Remark: another data set of the same source

Binder	IC50 (read off the curve); NFkB-luciferase reporter (RLU), 293/D9/VEGFR1 cells, VEGF121 constant 40 pM [B]
B1	~2e-11 M
B7	~1e-11 M

Target: T1, Human VEGF121 (R&D SYSTEMS Cat #4644-VS)
Experiment: cell-based or functional assay
Remark: another data set of the same source

Binder	IC50 (read off the curve); NFkB-luciferase reporter (RLU), 293/D9/VEGFR1 cells, VEGF121 constant 40 pM [D]
B4	~1e-11 M
B5	~1e-11 M

Target: T2, Human VEGF165 (REGN110)
Experiment: cell-based or functional assay

Binder	IC50, VEGFR1 40 pM VEGF165 (REGN110) (luciferase)
B8	2.19e-11 M
B2	1.06e-11 M

Target: T1, Human VEGF121 (R&D SYSTEMS Cat #4644-VS)
Experiment: cell-based or functional assay
Remark: another data set of the same source

Binder	IC50, VEGFR1 40 pM R&D VEGF121 (luciferase)
B8	2.16e-11 M
B2	1.74e-11 M

Target: T2, Human VEGF165 (REGN110)
Experiment: SPR (Biacore 3000), 25C, trap captured by REGN18, hVEGF165 injected
Experimental: as §1

Binder	2.5 nM hVEGF165 Bound (RU)	Kd	koff	kon	t½
B1	7.3 RU	1.1 pM	1.01e-05 s⁻¹	9.2e+06 M⁻¹ s⁻¹	19.1 h
B2	10.5 RU	1.89 pM	1.44e-05 s⁻¹	7.62e+06 M⁻¹ s⁻¹	13.3 h
B3	14.8 RU	≤ 1.08 pM	≤ 1e-05 s⁻¹	9.3e+06 M⁻¹ s⁻¹	≥ 19.2 h
B4	14.3 RU	≤ 1.37 pM	≤ 1e-05 s⁻¹	7.3e+06 M⁻¹ s⁻¹	≥ 19.2 h
B5	10.5 RU	1.82 pM	1.73e-05 s⁻¹	9.5e+06 M⁻¹ s⁻¹	11.1 h
B6	4.2 RU	≤ 1.37 pM	≤ 1e-05 s⁻¹	7.3e+06 M⁻¹ s⁻¹	≥ 19.2 h
B7	12.2 RU	1.78 pM	1.7e-05 s⁻¹	9.5e+06 M⁻¹ s⁻¹	11.3 h

Target: T1, Human VEGF121 (R&D SYSTEMS Cat #4644-VS)
Experiment: cell-based or functional assay
Remark: another data set of the same source

Binder	IC50 (read off the curve); NFkB-luciferase reporter (RLU), 293/D9/VEGFR1 cells, VEGF121 constant 40 pM [E]
B2	~2e-11 M
B3	~2e-11 M
